Measurements published in patent publication US20220306751A1 (MYTHIC THERAPEUTICS, published 2022).

Target: T1, CD123 Protein, His Tag, Acro Biosciences Cat. No. ILA-H52H6 (Homo sapiens (Human), UniProt P26951 19-305)
T1 construct: Bought protein; not shown: His tag
T1 sequence: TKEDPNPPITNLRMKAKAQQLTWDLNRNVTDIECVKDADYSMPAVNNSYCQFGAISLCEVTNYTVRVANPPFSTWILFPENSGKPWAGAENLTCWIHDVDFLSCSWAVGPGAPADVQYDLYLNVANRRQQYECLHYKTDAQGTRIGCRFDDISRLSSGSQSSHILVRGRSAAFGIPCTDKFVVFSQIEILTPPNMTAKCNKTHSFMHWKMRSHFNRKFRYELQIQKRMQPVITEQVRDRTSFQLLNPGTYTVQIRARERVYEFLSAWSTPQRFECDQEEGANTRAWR
Assay: BLI, IgG on anti-human Fc sensor, 50 nM CD123, pH 7.4 and pH 5.4
Outline: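 Single His/Ala heavy-chain CDR variants were expressed in Expi293 and captured from diluted supernatant on anti-human Fc sensors. By BLI, association with 50 nM His-tagged CD123 ran for 120 s and dissociation for 300–600 s, all in PBST pH 7.4. The full cycle was repeated separately in PBST pH 5.4.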

B1: MYT2790 (antibody, V domains shown)
VH: QVQLVQSGAEVKKPGASVKVSCKASGYIFTSSIMHWVRQAPGQGLEWIGYIKPYNDGTKYNEKFKGRATLTSDRSTSTAYMELSSLRSEDTAVYYCAREGGNDYYDTMDYWGQGTLVTVSS
VL: DIQMTQSPSSLSASVGDRVTITCRASQDINSYLSWFQQKPGKAPKTLIYRVNRLVHGVPSRFSGSGSGNDYTLTISSLQPEDFATYYCLQYDAFPYTFGQGTKVEIK
notes: IgG
binding result: binds

B2: MYT2791 (antibody, V domains shown)
VH: QVQLVQSGAEVKKPGASVKVSCKASGYIFTSSIMHWVRQAPGQGLEWIGYIKPYNDGTKYNEKFKGRATLTSDRSTSTAYMELSSLRSEDTAVYYCAREGGNDYYDTMDYWGQGTLVTVSS
VL: DIQMTQSPSSLSASVGDRVTITCRASQDINSYLSWFQQKPGKAPKTLIYRVNRLVDGVPSRFSGSGSGNDYTLTISSLQPEDFATYYCHQYDAFPYTFGQGTKVEIK
notes: IgG
binding result: binds

B3: MYT2792 (antibody, V domains shown)
VH: QVQLVQSGAEVKKPGASVKVSCKASGYIFTSSIMHWVRQAPGQGLEWIGYIKPYNDGTKYNEKFKGRATLTSDRSTSTAYMELSSLRSEDTAVYYCAREGGNDYYDTMDYWGQGTLVTVSS
VL: DIQMTQSPSSLSASVGDRVTITCRASQDINSYLSWFQQKPGKAPKTLIYRVNRLVDGVPSRFSGSGSGNDYTLTISSLQPEDFATYYCLHYDAFPYTFGQGTKVEIK
notes: IgG
binding result: binds

B4: MYT2793 (antibody, V domains shown)
VH: QVQLVQSGAEVKKPGASVKVSCKASGYIFTSSIMHWVRQAPGQGLEWIGYIKPYNDGTKYNEKFKGRATLTSDRSTSTAYMELSSLRSEDTAVYYCAREGGNDYYDTMDYWGQGTLVTVSS
VL: DIQMTQSPSSLSASVGDRVTITCRASQDINSYLSWFQQKPGKAPKTLIYRVNRLVDGVPSRFSGSGSGNDYTLTISSLQPEDFATYYCLQHDAFPYTFGQGTKVEIK
notes: IgG
binding result: binds

B5: MYT2794 (antibody, V domains shown)
VH: QVQLVQSGAEVKKPGASVKVSCKASGYIFTSSIMHWVRQAPGQGLEWIGYIKPYNDGTKYNEKFKGRATLTSDRSTSTAYMELSSLRSEDTAVYYCAREGGNDYYDTMDYWGQGTLVTVSS
VL: DIQMTQSPSSLSASVGDRVTITCRASQDINSYLSWFQQKPGKAPKTLIYRVNRLVDGVPSRFSGSGSGNDYTLTISSLQPEDFATYYCLQYHAFPYTFGQGTKVEIK
notes: IgG
binding result: binds

B6: MYT2795 (antibody, V domains shown)
VH: QVQLVQSGAEVKKPGASVKVSCKASGYIFTSSIMHWVRQAPGQGLEWIGYIKPYNDGTKYNEKFKGRATLTSDRSTSTAYMELSSLRSEDTAVYYCAREGGNDYYDTMDYWGQGTLVTVSS
VL: DIQMTQSPSSLSASVGDRVTITCRASQDINSYLSWFQQKPGKAPKTLIYRVNRLVDGVPSRFSGSGSGNDYTLTISSLQPEDFATYYCLQYDHFPYTFGQGTKVEIK
notes: IgG
binding result: binds

B7: MYT2796 (antibody, V domains shown)
VH: QVQLVQSGAEVKKPGASVKVSCKASGYIFTSSIMHWVRQAPGQGLEWIGYIKPYNDGTKYNEKFKGRATLTSDRSTSTAYMELSSLRSEDTAVYYCAREGGNDYYDTMDYWGQGTLVTVSS
VL: DIQMTQSPSSLSASVGDRVTITCRASQDINSYLSWFQQKPGKAPKTLIYRVNRLVDGVPSRFSGSGSGNDYTLTISSLQPEDFATYYCLQYDAHPYTFGQGTKVEIK
notes: IgG
binding result: binds

B8: MYT2797 (antibody, V domains shown)
VH: QVQLVQSGAEVKKPGASVKVSCKASGYIFTSSIMHWVRQAPGQGLEWIGYIKPYNDGTKYNEKFKGRATLTSDRSTSTAYMELSSLRSEDTAVYYCAREGGNDYYDTMDYWGQGTLVTVSS
VL: DIQMTQSPSSLSASVGDRVTITCRASQDINSYLSWFQQKPGKAPKTLIYRVNRLVDGVPSRFSGSGSGNDYTLTISSLQPEDFATYYCLQYDAFHYTFGQGTKVEIK
notes: IgG
binding result: binds

B9: MYT2798 (antibody, V domains shown)
VH: QVQLVQSGAEVKKPGASVKVSCKASGYIFTSSIMHWVRQAPGQGLEWIGYIKPYNDGTKYNEKFKGRATLTSDRSTSTAYMELSSLRSEDTAVYYCAREGGNDYYDTMDYWGQGTLVTVSS
VL: DIQMTQSPSSLSASVGDRVTITCRASQDINSYLSWFQQKPGKAPKTLIYRVNRLVDGVPSRFSGSGSGNDYTLTISSLQPEDFATYYCLQYDAFPHTFGQGTKVEIK
notes: IgG
binding result: binds

B10: MYT2799 (antibody, V domains shown)
VH: QVQLVQSGAEVKKPGASVKVSCKASGYIFTSSIMHWVRQAPGQGLEWIGYIKPYNDGTKYNEKFKGRATLTSDRSTSTAYMELSSLRSEDTAVYYCAREGGNDYYDTMDYWGQGTLVTVSS
VL: DIQMTQSPSSLSASVGDRVTITCRASQDINSYLSWFQQKPGKAPKTLIYRVNRLVDGVPSRFSGSGSGNDYTLTISSLQPEDFATYYCLQYDAFPYHFGQGTKVEIK
notes: IgG
binding result: binds

B11: MYT1414 (antibody, V domains shown)
VH: QVQLVQSGAEVKKPGASVKMSCKASHYTFTDYYMKWVKQAPGQGLEWIGDIIPSNGATFYNQKFKGKATLTVDRSISTAYMHLNRLRSDDTAVYYCTRSHLLRASWFAYWGQGTLVTVSS
VL: DFVMTQSPDSLAVSLGERATINCKSSQSLLNSGNQKNYLTWYLQKPGQPPKLLIYWASTRESGVPDRFSGSGSGTDFTLTISSLQAEDVAVYYCQNDYSYPYTFGQGTKLEIK
notes: IgG
binding result: binds

B12: MYT1415 (antibody, V domains shown)
VH: QVQLVQSGAEVKKPGASVKMSCKASGHTFTDYYMKWVKQAPGQGLEWIGDIIPSNGATFYNQKFKGKATLTVDRSISTAYMHLNRLRSDDTAVYYCTRSHLLRASWFAYWGQGTLVTVSS
VL: DFVMTQSPDSLAVSLGERATINCKSSQSLLNSGNQKNYLTWYLQKPGQPPKLLIYWASTRESGVPDRFSGSGSGTDFTLTISSLQAEDVAVYYCQNDYSYPYTFGQGTKLEIK
notes: IgG
binding result: binds

B13: MYT1416 (antibody, V domains shown)
VH: QVQLVQSGAEVKKPGASVKMSCKASGYHFTDYYMKWVKQAPGQGLEWIGDIIPSNGATFYNQKFKGKATLTVDRSISTAYMHLNRLRSDDTAVYYCTRSHLLRASWFAYWGQGTLVTVSS
VL: DFVMTQSPDSLAVSLGERATINCKSSQSLLNSGNQKNYLTWYLQKPGQPPKLLIYWASTRESGVPDRFSGSGSGTDFTLTISSLQAEDVAVYYCQNDYSYPYTFGQGTKLEIK
notes: IgG
binding result: binds

B14: MYT1418 (antibody, V domains shown)
VH: QVQLVQSGAEVKKPGASVKMSCKASGYTFHDYYMKWVKQAPGQGLEWIGDIIPSNGATFYNQKFKGKATLTVDRSISTAYMHLNRLRSDDTAVYYCTRSHLLRASWFAYWGQGTLVTVSS
VL: DFVMTQSPDSLAVSLGERATINCKSSQSLLNSGNQKNYLTWYLQKPGQPPKLLIYWASTRESGVPDRFSGSGSGTDFTLTISSLQAEDVAVYYCQNDYSYPYTFGQGTKLEIK
notes: IgG
binding result: binds

B15: MYT1419 (antibody, V domains shown)
VH: QVQLVQSGAEVKKPGASVKMSCKASGYTFTHYYMKWVKQAPGQGLEWIGDIIPSNGATFYNQKFKGKATLTVDRSISTAYMHLNRLRSDDTAVYYCTRSHLLRASWFAYWGQGTLVTVSS
VL: DFVMTQSPDSLAVSLGERATINCKSSQSLLNSGNQKNYLTWYLQKPGQPPKLLIYWASTRESGVPDRFSGSGSGTDFTLTISSLQAEDVAVYYCQNDYSYPYTFGQGTKLEIK
notes: IgG
binding result: binds

B16: MYT1420 (antibody, V domains shown)
VH: QVQLVQSGAEVKKPGASVKMSCKASGYTFTDHYMKWVKQAPGQGLEWIGDIIPSNGATFYNQKFKGKATLTVDRSISTAYMHLNRLRSDDTAVYYCTRSHLLRASWFAYWGQGTLVTVSS
VL: DFVMTQSPDSLAVSLGERATINCKSSQSLLNSGNQKNYLTWYLQKPGQPPKLLIYWASTRESGVPDRFSGSGSGTDFTLTISSLQAEDVAVYYCQNDYSYPYTFGQGTKLEIK
notes: IgG
binding result: binds

B17: MYT1421 (antibody, V domains shown)
VH: QVQLVQSGAEVKKPGASVKMSCKASGYTFTDYHMKWVKQAPGQGLEWIGDIIPSNGATFYNQKFKGKATLTVDRSISTAYMHLNRLRSDDTAVYYCTRSHLLRASWFAYWGQGTLVTVSS
VL: DFVMTQSPDSLAVSLGERATINCKSSQSLLNSGNQKNYLTWYLQKPGQPPKLLIYWASTRESGVPDRFSGSGSGTDFTLTISSLQAEDVAVYYCQNDYSYPYTFGQGTKLEIK
notes: IgG
binding result: binds

B18: MYT1422 (antibody, V domains shown)
VH: QVQLVQSGAEVKKPGASVKMSCKASGYTFTDYYHKWVKQAPGQGLEWIGDIIPSNGATFYNQKFKGKATLTVDRSISTAYMHLNRLRSDDTAVYYCTRSHLLRASWFAYWGQGTLVTVSS
VL: DFVMTQSPDSLAVSLGERATINCKSSQSLLNSGNQKNYLTWYLQKPGQPPKLLIYWASTRESGVPDRFSGSGSGTDFTLTISSLQAEDVAVYYCQNDYSYPYTFGQGTKLEIK
notes: IgG
binding result: binds

B19: MYT1423 (antibody, V domains shown)
VH: QVQLVQSGAEVKKPGASVKMSCKASGYTFTDYYMHWVKQAPGQGLEWIGDIIPSNGATFYNQKFKGKATLTVDRSISTAYMHLNRLRSDDTAVYYCTRSHLLRASWFAYWGQGTLVTVSS
VL: DFVMTQSPDSLAVSLGERATINCKSSQSLLNSGNQKNYLTWYLQKPGQPPKLLIYWASTRESGVPDRFSGSGSGTDFTLTISSLQAEDVAVYYCQNDYSYPYTFGQGTKLEIK
notes: IgG
binding result: binds

B20: MYT1426 (antibody, V domains shown)
VH: QVQLVQSGAEVKKPGASVKMSCKASGYTFTDYYMKWVKQAPGQGLEWIGDIHPSNGATFYNQKFKGKATLTVDRSISTAYMHLNRLRSDDTAVYYCTRSHLLRASWFAYWGQGTLVTVSS
VL: DFVMTQSPDSLAVSLGERATINCKSSQSLLNSGNQKNYLTWYLQKPGQPPKLLIYWASTRESGVPDRFSGSGSGTDFTLTISSLQAEDVAVYYCQNDYSYPYTFGQGTKLEIK
notes: IgG
binding result: binds
